Kd data for two molecules are collected here from publication PMC10404625 (The Journal of Biological Chemistry, 2023).

One may read the Kd as a measure of binding affinity in units of concentration. A high value points to lower affinity.

What all share (assay): MST
One assay addresses T1, Rpc25/17 heterodimer (S. cerevisiae, UniProt P35718 1-212; P47076 1-161).
T1 sequence (looked up) 1: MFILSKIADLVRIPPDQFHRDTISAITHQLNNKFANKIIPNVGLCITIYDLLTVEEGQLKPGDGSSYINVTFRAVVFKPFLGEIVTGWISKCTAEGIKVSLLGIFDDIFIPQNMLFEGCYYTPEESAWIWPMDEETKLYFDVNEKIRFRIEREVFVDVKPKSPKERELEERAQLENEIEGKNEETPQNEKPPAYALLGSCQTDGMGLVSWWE
T1 sequence (looked up) 2: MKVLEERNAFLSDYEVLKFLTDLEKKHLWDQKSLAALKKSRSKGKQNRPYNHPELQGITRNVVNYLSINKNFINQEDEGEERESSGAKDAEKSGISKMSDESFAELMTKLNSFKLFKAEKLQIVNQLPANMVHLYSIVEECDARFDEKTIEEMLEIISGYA

In assay [1] the target is T2, Rpc53/37 dimerization module (Rpc53 (274–422)/Rpc37 (71–181)) (S. cerevisiae, UniProt P25441 274-422; P36121 71-181).
T2 sequence (looked up) 1: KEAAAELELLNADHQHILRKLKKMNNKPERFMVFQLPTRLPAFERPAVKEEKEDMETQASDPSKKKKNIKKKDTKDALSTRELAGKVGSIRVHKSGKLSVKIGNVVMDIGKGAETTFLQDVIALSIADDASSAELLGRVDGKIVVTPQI
T2 sequence (looked up) 2: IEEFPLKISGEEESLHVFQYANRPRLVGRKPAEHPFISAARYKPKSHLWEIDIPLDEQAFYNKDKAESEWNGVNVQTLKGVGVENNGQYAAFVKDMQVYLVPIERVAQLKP

The next assay addresses T3, full-length Rpc37 (S. cerevisiae, UniProt P36121 1-282).
T3 sequence (looked up): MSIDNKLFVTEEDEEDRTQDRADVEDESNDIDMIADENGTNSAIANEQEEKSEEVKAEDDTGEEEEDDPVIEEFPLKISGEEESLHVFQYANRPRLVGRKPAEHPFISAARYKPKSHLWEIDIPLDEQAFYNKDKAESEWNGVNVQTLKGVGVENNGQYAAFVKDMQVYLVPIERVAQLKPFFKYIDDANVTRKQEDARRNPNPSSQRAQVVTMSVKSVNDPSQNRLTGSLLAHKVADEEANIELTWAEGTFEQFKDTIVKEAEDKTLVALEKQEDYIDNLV

The target in another assay is T4, Tfc4 N-ter (1–580) (S. cerevisiae, UniProt P33339 1-580).
T4 sequence (looked up): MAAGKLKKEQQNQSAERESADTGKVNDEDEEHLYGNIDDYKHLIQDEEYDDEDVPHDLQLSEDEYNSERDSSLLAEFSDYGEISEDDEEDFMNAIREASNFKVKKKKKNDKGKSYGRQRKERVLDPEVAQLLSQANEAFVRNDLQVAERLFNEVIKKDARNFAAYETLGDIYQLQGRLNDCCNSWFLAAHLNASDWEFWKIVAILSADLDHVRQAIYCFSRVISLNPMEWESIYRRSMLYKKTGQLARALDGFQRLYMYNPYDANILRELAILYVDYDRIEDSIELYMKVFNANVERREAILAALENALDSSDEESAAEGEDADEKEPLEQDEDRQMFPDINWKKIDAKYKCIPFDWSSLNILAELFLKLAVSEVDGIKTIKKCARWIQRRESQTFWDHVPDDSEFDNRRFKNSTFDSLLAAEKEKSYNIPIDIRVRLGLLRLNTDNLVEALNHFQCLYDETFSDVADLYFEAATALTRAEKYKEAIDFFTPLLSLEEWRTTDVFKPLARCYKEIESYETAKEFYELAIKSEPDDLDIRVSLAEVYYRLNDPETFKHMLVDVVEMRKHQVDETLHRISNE

In assay [2] the target is three Rpc53 N-ter mutant peptides.

Ends that are not written are not given here.

B1: Rpc53 N-ter (1–57) fragment (domain or fragment, S. cerevisiae, UniProt P25441 1-57, looked up)
chain: MSSNKGNGRLPSLKDSSSNGGGSAKPSLKFKPKAVARKSKEEREAAASKVKLEEESK
modifications: also: Alexa Fluor 647 via NHS ester, position not given here
Take B1: the dissociation constant Kd with Rpc25/17 heterodimer turned out to be 230 ± 170 nM; in assay [1], 1620 ± 650 nM; with full-length Rpc37, 8.2 ± 1.7 nM; with Tfc4 N-ter (1–580), 5.6 ± 1.7 nM.

B2: Tfc4 N-ter (1–580) (domain or fragment)
chain: T4 sequence (looked up)
B2 came in with a Kd in assay [2] of 40 to 100 nM.
